According to patent US20140037667A1:

Target: env polypeptide of the LR1-C1 isolate (HIV-1 (variant of clade B primary isolate AC10))
Experiment: virion capture assay, titration of virions on 4E10-coated plates, p24 ELISA

4E10 antibody
fold increase in affinity against the AC10 wild-type variant: 4 fold
